Reference: the RNAGym collection of RNA variant scans (doi:10.1093/molbev/msab373)

B1: Azoarcus group I ribozyme (parent)
chain: GUGCCUUGCGCCGGGAAACCACGCAAGGGAUGGUGUCAAAUUCGGCGAAACCUAAGCGCCCGCCCGGGCGUAUGGCAACGCCGAGCCAAGCUUCGGCGCCUGCGCCGAUGAAGGUGUAGAGACUAGACGGCACCCACCUAAGGCAAACGCUAUGGUGAAGGCAUAGUCCAGGGAGUGGCGAAAGUCACACAAACCGG

Variants of: B1
Test: reverse-splicing fitness (ratio to wild type); higher = more active; in vitro selection; Mg2+ level not given
Method in brief: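 An in vitro group I ribozyme library with randomized positions was T7-transcribed and gel-purified. In triplicate, 10 pmol RNA in EPPS pH 7.5 was reacted with 50 pmoles of a 30-nt RNA substrate for 1 h at 37 °C across several added MgCl2 levels (1–48 mM), then stopped with EDTA. Products were reverse transcribed from a substrate-complementary primer, PCR-amplified and sequenced (HiSeq 4000). Fitness is a variant's read proportion after selection over that before, normalised to wild type.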

Variant | reverse-splicing fitness
GUGCCUUGCGCCGGGAAACCACGCAAGGGAUGGUGUCAAAUUCGGCGAAACCUAAGCGCCCGCCCGGGCGUAUGGCAACGCGGAGCCAAGCUUCGGCGCCUGCGCCGAUGUAGGUGUAGUGACUAGACGGCACCCACCUAAGGCCAACGAUAUGGUGAAGGCAUAGUCUAGGGAGGGGCGAAAGUCACACAAACCGG [C82G A111U A120U A145C C150A C169U U176G] | 0.00177
GUGCCUUGCGCCGGGAAACCACGCAAGGGAUGGUGUCAAAUUCGGCGAAACCUAAGCGCCCGCCCGGGCGUAUGGCAACGCGGAGCCAAGCUUCGGCGCCUGCGCCGAUGUAGGUGUAGUGACUAGACGGCACCCACCUAAGGCCAACGGUAUGGUGAAGGCAUAGUCAAGGGAGCGGCGAAAGUCACACAAACCGG [C82G A111U A120U A145C C150G C169A U176C] | 0.00248
GUGCCUUGCGCCGGGAAACCACGCAAGGGAUGGUGUCAAAUUCGGCGAAACCUAAGCGCCCGCCCGGGCGUAUGGCAACGCGGAGCCAAGCUUCGGCGCCUGCGCCGAUGUAGGUGUAGUGACUAGACGGCACCCACCUAAGGCCAACGGUAUGGUGAAGGCAUAGUCAAGGGAGAGGCGAAAGUCACACAAACCGG [C82G A111U A120U A145C C150G C169A U176A] | 0.00316
GUGCCUUGCGCCGGGAAACCACGCAAGGGAUGGUGUCAAAUUCGGCGAAACCUAAGCGCCCGCCCGGGCGUAUGGCAACGCGGAGCCAAGCUUCGGCGCCUGCGCCGAUGUAGGUGUAGUGACUAGACGGCACCCACCUAAGGCCAACGGUAUGGUGAAGGCAUAGUCAAGGGAGGGGCGAAAGUCACACAAACCGG [C82G A111U A120U A145C C150G C169A U176G] | 0.00246
GUGCCUUGCGCCGGGAAACCACGCAAGGGAUGGUGUCAAAUUCGGCGAAACCUAAGCGCCCGCCCGGGCGUAUGGCAACGCGGAGCCAAGCUUCGGCGCCUGCGCCGAUGUAGGUGUAGUGACUAGACGGCACCCACCUAAGGCCAACGGUAUGGUGAAGGCAUAGUCGAGGGAGUGGCGAAAGUCACACAAACCGG [C82G A111U A120U A145C C150G C169G] | 0.00344
GUGCCUUGCGCCGGGAAACCACGCAAGGGAUGGUGUCAAAUUCGGCGAAACCUAAGCGCCCGCCCGGGCGUAUGGCAACGCGGAGCCAAGCUUCGGCGCCUGCGCCGAUGUAGGUGUAGUGACUAGACGGCACCCACCUAAGGCCAACGGUAUGGUGAAGGCAUAGUCUAGGGAGUGGCGAAAGUCACACAAACCGG [C82G A111U A120U A145C C150G C169U] | 0.00336
GUGCCUUGCGCCGGGAAACCACGCAAGGGAUGGUGUCAAAUUCGGCGAAACCUAAGCGCCCGCCCGGGCGUAUGGCAACGCGGAGCCAAGCUUCGGCGCCUGCGCCGAUGUAGGUGUAGUGACUAGACGGCACCCACCUAAGGCCAACGGUAUGGUGAAGGCAUAGUCAAGGGAGUGGCGAAAGUCACACAAACCGG [C82G A111U A120U A145C C150G C169A] | 0.00362
GUGCCUUGCGCCGGGAAACCACGCAAGGGAUGGUGUCAAAUUCGGCGAAACCUAAGCGCCCGCCCGGGCGUAUGGCAACGCGGAGCCAAGCUUCGGCGCCUGCGCCGAUGUAGGUGUAGUGACUAGACGGCACCCACCUAAGGCCAACGGUAUGGUGAAGGCAUAGUCGAGGGAGCGGCGAAAGUCACACAAACCGG [C82G A111U A120U A145C C150G C169G U176C] | 0.00235
GUGCCUUGCGCCGGGAAACCACGCAAGGGAUGGUGUCAAAUUCGGCGAAACCUAAGCGCCCGCCCGGGCGUAUGGCAACGCGGAGCCAAGCUUCGGCGCCUGCGCCGAUGUAGGUGUAGUGACUAGACGGCACCCACCUAAGGCCAACGGUAUGGUGAAGGCAUAGUCGAGGGAGAGGCGAAAGUCACACAAACCGG [C82G A111U A120U A145C C150G C169G U176A] | 0.00357
GUGCCUUGCGCCGGGAAACCACGCAAGGGAUGGUGUCAAAUUCGGCGAAACCUAAGCGCCCGCCCGGGCGUAUGGCAACGCGGAGCCAAGCUUCGGCGCCUGCGCCGAUGUAGGUGUAGUGACUAGACGGCACCCACCUAAGGCCAACGGUAUGGUGAAGGCAUAGUCGAGGGAGGGGCGAAAGUCACACAAACCGG [C82G A111U A120U A145C C150G C169G U176G] | 0.00237
GUGCCUUGCGCCGGGAAACCACGCAAGGGAUGGUGUCAAAUUCGGCGAAACCUAAGCGCCCGCCCGGGCGUAUGGCAACGCGGAGCCAAGCUUCGGCGCCUGCGCCGAUGUAGGUGUAGUGACUAGACGGCACCCACCUAAGGCCAACGAUAUGGUGAAGGCAUAGUCCAGGGAGGGGCGAAAGUCACACAAACCGG [C82G A111U A120U A145C C150A U176G] | 0.00209
GUGCCUUGCGCCGGGAAACCACGCAAGGGAUGGUGUCAAAUUCGGCGAAACCUAAGCGCCCGCCCGGGCGUAUGGCAACGCGGAGCCAAGCUUCGGCGCCUGCGCCGAUGUAGGUGUAGUGACUAGACGGCACCCACCUAAGGCCAACGAUAUGGUGAAGGCAUAGUCCAGGGAGAGGCGAAAGUCACACAAACCGG [C82G A111U A120U A145C C150A U176A] | 0.00311
GUGCCUUGCGCCGGGAAACCACGCAAGGGAUGGUGUCAAAUUCGGCGAAACCUAAGCGCCCGCCCGGGCGUAUGGCAACGCGGAGCCAAGCUUCGGCGCCUGCGCCGAUGUAGGUGUAGUGACUAGACGGCACCCACCUAAGGCCAACGAUAUGGUGAAGGCAUAGUCCAGGGAGCGGCGAAAGUCACACAAACCGG [C82G A111U A120U A145C C150A U176C] | 0.00373
GUGCCUUGCGCCGGGAAACCACGCAAGGGAUGGUGUCAAAUUCGGCGAAACCUAAGCGCCCGCCCGGGCGUAUGGCAACGCGGAGCCAAGCUUCGGCGCCUGCGCCGAUGUAGGUGUAGUGACUAGACGGCACCCACCUAAGGCCAACGGUAUGGUGAAGGCAUAGUCCAGGGAGUGGCGAAAGUCACACAAACCGG [C82G A111U A120U A145C C150G] | 0.00763
GUGCCUUGCGCCGGGAAACCACGCAAGGGAUGGUGUCAAAUUCGGCGAAACCUAAGCGCCCGCCCGGGCGUAUGGCAACGCGGAGCCAAGCUUCGGCGCCUGCGCCGAUGUAGGUGUAGUGACUAGACGGCACCCACCUAAGGCCAACGGUAUGGUGAAGGCAUAGUCUAGGGAGAGGCGAAAGUCACACAAACCGG [C82G A111U A120U A145C C150G C169U U176A] | 0.00273
